Like-named read-outs stand apart in the source and are kept apart here. Ends that are not written are not given here.
B1: SEQ ID NO:111 peptide (. . . QEELAWKIAKMIWSDVMQQC), rhodamine-labeled (peptide)
peptide: VQGNTDEAQEELAWKIAKMIWSDVMQQC(tetramethylrhodamine‑5‑maleimide)-NH2
notes: also called single mutant V21W
B2: PV-37 (SEQ ID NO:104) FEELAWKIAKMIWSDVMQQC, rhodamine-labeled (peptide)
peptide: FEELAWKIAKMIWSDVMQQC(tetramethylrhodamine‑5‑maleimide)-NH2
B3: PV-47 (SEQ ID NO:105) QEEFAWKIAKMIVSDVFQQC, rhodamine-labeled (peptide)
peptide: QEEFAWKIAKMIVSDVFQQC(tetramethylrhodamine‑5‑maleimide)-NH2
B4: PV-48 (SEQ ID NO:106) QEEFAWKIAKMIISDVFQQC, rhodamine-labeled (peptide)
peptide: QEEFAWKIAKMIISDVFQQC(tetramethylrhodamine‑5‑maleimide)-NH2
B5: PV-49 (SEQ ID NO:107) FEELAWKIAKMIISDVFQQC, rhodamine-labeled (peptide)
peptide: FEELAWKIAKMIISDVFQQC(tetramethylrhodamine‑5‑maleimide)-NH2
B6: SEQ ID NO:112 peptide Ac-DLAWKIAKMIVSDVMQQC, rhodamine-labeled (peptide)
peptide: Ac-DLAWKIAKMIVSDVMQQC(tetramethylrhodamine‑5‑maleimide)-NH2
B7: SEQ ID NO:66 peptide (peptide)
peptide: QGNTDEAQEELAWKIAKMIVSDIMQQ
modifications: also: cellulose-bound
B8: SEQ ID NO:67 peptide (peptide)
peptide: GNTDEAQEELAWKIAKMIVSDIMQQ
modifications: also: cellulose-bound
B9: SEQ ID NO:68 peptide (peptide)
peptide: NTDEAQEELAWKIAKMIVSDIMQQ
modifications: also: cellulose-bound
B10: SEQ ID NO:69 peptide (peptide)
peptide: TDEAQEELAWKIAKMIVSDIMQQ
modifications: also: cellulose-bound
B11: SEQ ID NO:70 peptide (peptide)
peptide: DEAQEELAWKIAKMIVSDIMQQ
modifications: also: cellulose-bound
B12: SEQ ID NO:71 peptide (peptide)
peptide: EAQEELAWKIAKMIVSDIMQQ
modifications: also: cellulose-bound
B13: SEQ ID NO:72 peptide (peptide)
peptide: AQEELAWKIAKMIVSDIMQQ
modifications: also: cellulose-bound
B14: SEQ ID NO:73 peptide (peptide)
peptide: QEELAWKIAKMIVSDIMQQ
modifications: also: cellulose-bound
B15: SEQ ID NO:74 peptide (peptide)
peptide: EELAWKIAKMIVSDIMQQ
modifications: also: cellulose-bound
B16: SEQ ID NO:75 peptide (peptide)
peptide: ELAWKIAKMIVSDIMQQ
modifications: also: cellulose-bound
B17: SEQ ID NO:76 peptide (peptide)
peptide: LAWKIAKMIVSDIMQQ
modifications: also: cellulose-bound
B18: SEQ ID NO:77 peptide (peptide)
peptide: AWKIAKMIVSDIMQQ
modifications: also: cellulose-bound
B19: SEQ ID NO:83 peptide (peptide)
peptide: VQGNTDEAQEELAWKIAKMIVSDIMQ
modifications: also: cellulose-bound
B20: SEQ ID NO:84 peptide (peptide)
peptide: VQGNTDEAQEELAWKIAKMIVSDIM
modifications: also: cellulose-bound
B21: SEQ ID NO:85 peptide (peptide)
peptide: VQGNTDEAQEELAWKIAKMIVSDI
modifications: also: cellulose-bound
B22: SEQ ID NO:86 peptide (peptide)
peptide: VQGNTDEAQEELAWKIAKMIVSD
modifications: also: cellulose-bound
B23: SEQ ID NO:87 peptide (peptide)
peptide: VQGNTDEAQEELAWKIAKMIVS
modifications: also: cellulose-bound
B24: SEQ ID NO:88 peptide (peptide)
peptide: VQGNTDEAQEELAWKIAKMIV
modifications: also: cellulose-bound
B25: SEQ ID NO:89 peptide (peptide)
peptide: VQGNTDEAQEELAWKIAKMI
modifications: also: cellulose-bound
B26: SEQ ID NO:90 peptide (peptide)
peptide: VQGNTDEAQEELAWKIAKM
modifications: also: cellulose-bound
B27: SEQ ID NO:91 peptide (peptide)
peptide: VQGNTDEAQEELAWKIAK
modifications: also: cellulose-bound
B28: SEQ ID NO:92 peptide (peptide)
peptide: VQGNTDEAQEELAWKIA
modifications: also: cellulose-bound
B29: SEQ ID NO:93 peptide (peptide)
peptide: VQGNTDEAQEELAWKI
modifications: also: cellulose-bound
B30: SEQ ID NO:94 peptide (peptide)
peptide: VQGNTDEAQEELAWK
modifications: also: cellulose-bound
B31: SEQ ID NO:95 peptide (peptide)
peptide: VQGNTDEAQEELAW
modifications: also: cellulose-bound
B32: SEQ ID NO:96 peptide (peptide)
peptide: VQGNTDEAQEELA
modifications: also: cellulose-bound
B33: SEQ ID NO:97 peptide (peptide)
peptide: VQGNTDEAQEEL
modifications: also: cellulose-bound
B34: SEQ ID NO:98 peptide (peptide)
peptide: VQGNTDEAQEE
modifications: also: cellulose-bound
B35: SEQ ID NO:99 peptide (peptide)
peptide: VQGNTDEAQE
modifications: also: cellulose-bound

Legend:
[1] = molecular target: T1, Full-length bovine RIα (bovine, UniProt P00514 1-380); test: fluorescence anisotropy, labeled peptide
T1 construct: mature; given as full-length
T1 sequence (P00514 whole entry): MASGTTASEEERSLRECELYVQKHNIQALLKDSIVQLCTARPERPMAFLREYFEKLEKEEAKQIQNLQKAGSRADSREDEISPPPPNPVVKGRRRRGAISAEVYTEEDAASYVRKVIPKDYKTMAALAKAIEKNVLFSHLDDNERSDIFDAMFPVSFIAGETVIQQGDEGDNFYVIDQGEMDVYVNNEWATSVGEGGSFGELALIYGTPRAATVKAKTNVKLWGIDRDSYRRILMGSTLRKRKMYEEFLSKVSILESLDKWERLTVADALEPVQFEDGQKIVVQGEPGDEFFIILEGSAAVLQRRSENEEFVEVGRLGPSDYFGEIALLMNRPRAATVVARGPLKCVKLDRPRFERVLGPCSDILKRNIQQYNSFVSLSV
Protocol: (§1) Binding of each fluorescently labeled peptide to the regulatory subunits was monitored using fluorescence anisotropy. RIα and RIIα were serially diluted beginning at 1 μM and 0.1 μM, respectively, into 10 mM HEPES pH 7.4, 0.15 M NaCl, 3 mM EDTA, 0.005% Surfactant P20 (Biacore) containing either 10 nM or 1 nM of fluorescently labeled peptide for RIα and RIIα, respectively. The samples were equilibrated for at least 1 hour at room temperature and fluorescence anisotropy monitored using a Fluoromax-2 (Jobin Yvon Horiba, SPEX Division, Edison, N.J.) equipped with Glan-Thompson polarizers. The rhodamine-labeled peptide was excited at 541 nm (5-10 nm bandpass) and emission monitored at 575 nm (5-10 nm bandpass). The anisotropy was calculated directly with the Fluoromax software using the following equation: […]
(§2) Several additional truncated and substituted peptides were synthesized and their affinity to RIα and RIIα evaluated using fluorescence anisotropy (see Table 8). Binding was evaluated for both RIα and RIIα0 using fluorescence anisotropy as described herein. Substituted residues are in bold Table 8. Tryptophan at a position corresponding to residue 21 of SEQ ID NO:2 is important for discriminating against binding to the RIIα subunit.

[2] = molecular target: T2, Full-length murine RIIα (murine, UniProt P12367 2-401); test: fluorescence anisotropy, labeled peptide
T2 construct: mature; given as full-length
T2 sequence (P12367 2-401): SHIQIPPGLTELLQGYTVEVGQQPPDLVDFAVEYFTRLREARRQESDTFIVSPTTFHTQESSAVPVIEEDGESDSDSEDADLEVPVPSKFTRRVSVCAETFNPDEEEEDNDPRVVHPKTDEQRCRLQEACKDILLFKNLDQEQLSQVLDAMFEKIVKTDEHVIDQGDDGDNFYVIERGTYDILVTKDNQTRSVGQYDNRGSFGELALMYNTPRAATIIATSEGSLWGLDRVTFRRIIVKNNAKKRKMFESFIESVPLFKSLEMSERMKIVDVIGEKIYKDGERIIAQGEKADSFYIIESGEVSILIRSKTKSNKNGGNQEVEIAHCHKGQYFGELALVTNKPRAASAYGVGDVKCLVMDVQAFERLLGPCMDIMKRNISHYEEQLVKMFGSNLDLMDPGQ
Protocol: as §1, §2

[3] = molecular target: T3, GFP-RIα D/D (bovine, UniProt P00514 1-109); test: SPOT peptide array, anti-GFP detection
T3 construct: range 1-109; His tag cleaved with thrombin; also called dimerization/docking (D/D) domain of bovine RIα (residues 1-109) fused to GFP; not shown: green fluorescent protein (GFP)
T3 sequence (P00514 1-109): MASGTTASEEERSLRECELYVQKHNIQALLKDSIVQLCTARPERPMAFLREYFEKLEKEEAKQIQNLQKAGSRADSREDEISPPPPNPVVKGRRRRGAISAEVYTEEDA

[4] = molecular target: T4, GFP-RIIα D/D (mouse, UniProt P12367 1-46); test: SPOT peptide array, anti-GFP detection
T4 construct: range 1-46; His tag cleaved with thrombin; also called GFP-RII D/D; D/D domain of mouse RIIα (residues 1-46) fused to GFP; not shown: green fluorescent protein (GFP)
T4 sequence (P12367 1-46): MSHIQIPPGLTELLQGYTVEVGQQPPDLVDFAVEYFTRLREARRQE

[5] = molecular target: T3, GFP-RIα D/D; test: SPOT peptide array, anti-GFP detection; remark: listed apart in the source
Protocol: (§3) In addition, the minimal sequence required for regulatory subunit binding was also assessed using N- and C-terminal truncations of the 27-residue human D-AKAP2 sequence. N-terminal or C-terminal truncated peptides were synthesized using SPOT synthesis on cellulose membrane as described herein. Binding was evaluated by incubating each membrane with GFP-RIα D/D and GFP-RIIα D/D as indicated below. The dimerization/docking (D/D) domain of bovine RIα (residues 1-109) and mouse RIIα (residues 1-46), fused to green fluorescence protein (GFP) were subcloned into a pRSET expression vector (Invitrogen, Carlsbad, Calif.) downstream of a histidine tag. The proteins, GFP-RIα D/D and GFP-RIIα D/D were expressed in E. coli BL21 (DE3) and purified using Talon (Clontech, Palo Alto, Calif.) resin. The His tag was cleaved using thrombin and the protein further purified using an S75-Sephadex (16/60) gel filtration column (Pharmacia, Peapack, N.J.) in 50 mM MES pH 5.8, 50 mM NaCl, 2 mM EDTA, 2 mM EGTA, 2 mM DTT. The protein was stored at 4° C.
(§4) Bound protein was detected using a primary antibody against GFP and enzyme conjugated secondary antibody for amplification of signal. The membrane was then analyzed by chemiluminescence.

[6] = molecular target: T4, GFP-RIIα D/D; test: SPOT peptide array, anti-GFP detection; remark: listed apart in the source
Protocol: as §3, §4

Row | Binder | binding result [4] | binding result [5] | binding result [6] | other results
1 | B1 |  |  |  | Kd [1]: 0.12 µM; Kd [2]: 0.083 µM
2 | B2 |  |  |  | Kd [1]: 0.019 µM; Kd [2]: 0.15 µM
3 | B3 |  |  |  | Kd [1]: 0.039 µM; Kd [2]: 0.089 µM
4 | B4 |  |  |  | Kd [1]: 0.012 µM; Kd [2]: 0.124 µM
5 | B5 |  |  |  | Kd [1]: 0.0011 µM; Kd [2]: 0.0025 µM
6 | B6 |  |  |  | Kd [1]: 0.773 µM; Kd [2]: 0.107 µM
7 | B7 | binds |  |  | binding result [3]: binds
8 | B8 | binds |  |  | binding result [3]: binds
9 | B9 | binds |  |  | binding result [3]: binds
10 | B10 | binds |  |  | binding result [3]: binds
11 | B11 | binds |  |  | binding result [3]: binds
12 | B12 | binds |  |  | binding result [3]: binds
13 | B13 | binds |  |  | binding result [3]: binds
14 | B14 | binds |  |  | binding result [3]: binds
15 | B15 | binds |  |  | binding result [3]: binds
16 | B16 | binds |  |  | binding result [3]: binds
17 | B17 | binds |  |  | 
18 | B18 | binds |  |  | 

Row | Binder | binding result [4] | binding result [5] | binding result [6] | other results
19 | B19 |  | binds | binds | 
20 | B20 |  | binds | binds | 
21 | B21 |  | binds | binds | 
22 | B22 |  | no binding | binds | 
23 | B23 |  | no binding | binds | 
24 | B24 |  | no binding | binds | 
25 | B25 |  | no binding | no binding | 
26 | B26 |  | no binding | no binding | 
27 | B27 |  | no binding | no binding | 
28 | B28 |  | no binding | no binding | 
29 | B29 |  | no binding | no binding | 
30 | B30 |  | no binding | no binding | 
31 | B31 |  | no binding | no binding | 
32 | B32 |  | no binding | no binding | 
33 | B33 |  | no binding | no binding | 
34 | B34 |  | no binding | no binding | 
35 | B35 |  | no binding | no binding | 
